The values below come from paper PMC6180082, “Structural Analysis of an Epitope Candidate of Triosephosphate Isomerase in Opisthorchis viverrini” (Scientific Reports, 2018).

The series deals with the molecule itself. Put plainly: crystal structure; OvTIM wild-type at ~80 mg/ml, hanging-drop vapor diffusion, 0.3 M magnesium chloride hexahydrate, 0.1 M Tris pH 8.5, 22% PEG 3350, 20 °C; molecular replacement; two homodimers in the asymmetric unit.

B1: Triosephosphate isomerase from Opisthorchis viverrini (OvTIM), wild-type (enzyme)
chain: MPTDRKFFVGGNWKMNGSKKENDKLIEMLTHAKIDPNTEVLVAPPSLYLPSVREKLDKRFHVAAQNCYKVPSGAFTGEVSPAMLKDVGCDWVILGHSERRHILMETDQLVGEKTNHAISAGVNVIACIGEKLEEREAGKTEEVCFRQMEAIRKNLSSADMWNHIVIAYEPVWAIGTGKTATEQQAQEVHLAVRKWMEEKVSPAVANSIRIIYGGSVTAANCRTLAKQPDVDGFLVGGASLKPDFIEICNANA
notes: Triosephosphate isomerase (EC 5.3.1.1) of Opisthorchis viverrini; cDNA synthesized and cloned NdeI/XhoI into pET17b with a 6 His-tag and thrombin site; residues 175-179 have no clear electron density in the crystal; a thrombin site lies between tag and protein; source: E. coli BL21 (DE3) pLysS, purified (HisTrap HP, HiTrap Q HP, Superdex-200 SEC)
As to B1, the binding result was “binds”.
